Assay results from patent US20040006022A1 (Harvard, published 2004).
Where two headings read alike, the source gives them in different places.

Assays:
[1] = target: HLA-DR1 purified from human homozygous EBV-transformed B cell lines (human); test: size-exclusion column of YEAK incubated with an excess of HLA-DR purified from B cell lines
[2] = target: HLA-DR4 purified from human homozygous EBV-transformed B cell lines (human); test: as above
[3] = target: HLA-DR2 purified from human homozygous EBV-transformed B cell lines (human); test: as above
[4] = target: recombinant water-soluble 'empty' HLA-DR4 (DRB1*0401) (human)
[5] = target: recombinant water-soluble 'empty' HLA-DR1 (DRB1*0101) (human); test: competitive binding ELISA on recombinant HLA-DR1; competitor biotinylated YEAK
[6] = target: recombinant water-soluble 'empty' HLA-DR1 (DRB1*0101) (human); test: incubation 1:1 with water-soluble HLA-DR, Centricon ultrafiltration, acid extraction, amino acid analysis
[7] = target: recombinant water-soluble 'empty' HLA-DR2 (DRB1*1501) (human); test: as above
[8] = target: recombinant water-soluble 'empty' HLA-DR4 (DRB1*0401) (human); test: as above
[9] = target: T1, recombinant water-soluble 'empty' HLA-DR4 (DRB1*0401) (human); test: competitive binding ELISA on recombinant HLA-DR4; competitor biotinylated YEAK
T1 construct: extracellular domain; extracellular domain is inferred from 'water-soluble'

[10] = target: HLA-DR4 on L fibroblasts transfected with HLA-DR4 (human); test: cell-based or functional assay
[11] = target: HLA-DR1 on L fibroblasts transfected with HLA-DR1 (L57.23) (human); test: cell-based or functional assay
[12] = target: T1, recombinant water-soluble 'empty' …; test: competitive binding ELISA; competitors biotinylated Multipin peptides
[13] = target: T2, recombinant water-soluble 'empty' HLA-DR1 (DRB1*0101) (human); test: as above
T2 construct: extracellular domain

heteropolymer YEAK (Copolymer 1), poly(Y,E,A,K)
percent of YEAK at the lower molecular weight position of control (unbound) YEAK [1]: < 10% | percent of YEAK at the lower molecular weight position of control (unbound) YEAK [2]: < 10% | percent of YEAK at the lower molecular weight position of control (unbound) YEAK [3]: < 10% | affinity determined by competition [4]: 2.5 µM | affinity determined by competition [5]: 8 µM | percent of added YEAK in the bound fraction [6]: > 95% | percent of added YEAK in the bound fraction [7]: 80% | percent of added YEAK in the bound fraction [8]: > 95%

B1: synthetic 15-mer peptide SEQ ID NO: 15, AAKYAEAAAAKAAAA (peptide)
peptide: AAKYAEAAAAKAAAA
notes: also called peptide 15
affinity determined by competition [9]: < 1 µM | inhibition of the DR4 D3 T cell clone (IL-2 secretion) [10]: > 80% | inhibition of the response of 19.3 T cells (IL-2 secretion) [11]: ~100%

B2: synthetic 15-mer peptide SEQ ID NO: 22, AKKYAEAAAAAAAAA (peptide)
peptide: AKKYAEAAAAAAAAA
inhibition of the DR4 3838 T cell clone (IL-2 secretion) [10]: > 80%

B3: synthetic 15-mer peptide SEQ ID NO: 26, AAEYKAAAAAAAAAA (peptide)
peptide: AAEYKAAAAAAAAAA
inhibition of the response of 19.3 T cells (IL-2 secretion) [11]: ~100%

B4: synthetic 15-mer peptide SEQ ID NO: 8, AKKYAAAAAAKAAAA (peptide)
peptide: AKKYAAAAAAKAAAA
inhibition of the DR4 D3 T cell clone (IL-2 secretion) [10]: > 80%

B5: synthetic 15-mer peptide SEQ ID NO: 20, AKEYAAAAAAAAAAA (peptide)
peptide: AKEYAAAAAAAAAAA
inhibition of the response of 19.3 T cells (IL-2 secretion) [11]: ~100%

B6: synthetic 15-mer peptide SEQ ID NO: 23, AEAYKAAAAAAAAAA (peptide)
peptide: AEAYKAAAAAAAAAA
inhibition of the DR4 3838 T cell clone (IL-2 secretion) [10]: > 80%

B7: synthetic 15-mer peptide SEQ ID NO: 28, AAKYEAAAAAAAAAA (peptide)
peptide: AAKYEAAAAAAAAAA
inhibition of the DR4 3838 T cell clone (IL-2 secretion) [10]: > 80%

B8: collagen II (CII) peptide 261-273, AGFKGEQGPKGEP (peptide)
peptide: AGFKGEQGPKGEP
binding result [12]: binds | binding result [13]: binds

B9: synthetic 15-mer peptide SEQ ID NO: 6, AEKYAAAAAAKAAAA (peptide)
peptide: AEKYAAAAAAKAAAA
inhibition of the DR4 3838 T cell clone (IL-2 secretion) [10]: > 80%

B10: synthetic 15-mer peptide SEQ ID NO: 11, AEEYAAAAAAKAAAA (peptide)
peptide: AEEYAAAAAAKAAAA
inhibition of the DR4 3838 T cell clone (IL-2 secretion) [10]: > 80%

B11: synthetic 15-mer peptide SEQ ID NO: 17, EKKYAAAAAAKAAAA (peptide)
peptide: EKKYAAAAAAKAAAA
inhibition of the DR4 3838 T cell clone (IL-2 secretion) [10]: > 80%

B12: synthetic 15-mer peptide SEQ ID NO: 18, EAKYAAAAAAKAAAA (peptide)
peptide: EAKYAAAAAAKAAAA
affinity determined by competition [9]: 3 µM | inhibition of the DR4 D3 T cell clone (IL-2 secretion) [10]: > 80%

B13: synthetic 15-mer peptide SEQ ID NO: 16, EAAYAAAAAAKAAAA (peptide)
peptide: EAAYAAAAAAKAAAA
inhibition of the DR4 3838 T cell clone (IL-2 secretion) [10]: > 80% | inhibition of the DR4 D3 T cell clone (IL-2 secretion) [10]: > 80%

B14: synthetic 15-mer peptide SEQ ID NO: 27, EKAYAAAAAAAAAAA (peptide)
peptide: EKAYAAAAAAAAAAA
inhibition of the DR4 3838 T cell clone (IL-2 secretion) [10]: > 80% | inhibition of the DR4 D3 T cell clone (IL-2 secretion) [10]: > 80% | inhibition of the response of 19.3 T cells (IL-2 secretion) [11]: ~100%

B15: synthetic 15-mer peptide SEQ ID NO: 33, AEKAYAAAAAAAAAA (peptide)
peptide: AEKAYAAAAAAAAAA
inhibition of the DR4 3838 T cell clone (IL-2 secretion) [10]: > 80%
